Measurements reported in PMC7058448.

Molecular target: gp120-gp41 protomer of cleaved gp160, HIV-1 isolate 92UG037.8 (HIV-1 isolate 92UG037.8 (clade A))
Experiment: cryo-EM structure

gp120-gp41 protomer of cleaved gp160, HIV-1 isolate 92UG037.8 (complex)
stoichiometry N: 3
